To fix the notation:
B1: pro-caspase-9 inactive mutant (Cys287/Ala) (enzyme)
chain: MDEADRRLLRRCRLRLVEELQVDQLWDALLSSELFRPHMIEDIQRAGSGSRRDQARQLIIDLETRGSQALPLFISCLEDTGQDMLASFLRTNRQAAKLSKPTLENLTPVVLRPEIRKPEVLRPETPRPVDIGSGGFGDVGALESLRGNADLAYILSMEPCGHCLIINNVNFCRESGLRTRTGSNIDCEKLRRRFSSPHFMVEVKGDLTAKKMVLALLELAQQDHGALDCCVVVILSHGCQASHLQFPGAVYGTDGCPVSVEKIVNIFNGTSCPSLGGKPKLFFIQAAGGEQKDHGFEVASTSPEDESPGSNPEPDATPFQEGLRTFDQLDAISSLPTPSDIFVSYSTFPGFVSWRDPKSGSWYVETLDDIFEQWAHSEDLQSLLLRVANAVSVKGIYKQMPGCFNFLRKKLFFKTS
B2: Bcl10 (CIPER; huE10) (other, UniProt O95999 1-233, looked up)
chain: MEPTAPSLTEEDLTEVKKDALENLRVYLCEKIIAERHFDHLRAKKILSREDTEEISCRTSSRKRAGKLLDYLQENPKGLDTLVESIRREKTQNFLIQKITDEVLKLRNIKLEHLKGLKCSSCEPFPDGATNNLSRSNSDESNFSEKLRASTVMYHPEGESSTTPFFSTNSSLNLPVLEVGRTENTIFSSTTLPRPGDPGAPPLPPDLQLEEEGTCANSSEMFLPLRSRTVSRQ
B3: pro-Caspase-1 (enzyme, UniProt P29466 1-404, looked up)
chain: MADKVLKEKRKLFIRSMGEGTINGLLDELLQTRVLNKEEMEKVKRENATVMDKTRALIDSVIPKGAQACQICITYICEEDSYLAGTLGLSADQTSGNYLNMQDSQGVLSSFPAPQAVQDNPAMPTSSGSEGNVKLCSLEEAQRIWKQKSAEIYPIMDKSSRTRLALIICNEEFDSIPRRTGAEVDITGMTMLLQNLGYSVDVKKNLTASDMTTELEAFAHRPEHKTSDSTFLVFMSHGIREGICGKKHSEQVPDILQLNAIFNMLNTKNCPSLKDKPKVIIIQACRGDSPGVVWFKDSVGVSGNLSLPTTEEFEDDAIKKAHIEKDFIAFCSSTPDNVSWRHPTMGSVFIGRLIEHMQEYACSCDVEEIFRKVRFSFEQPDGRAQMPTTERVTLTRCFYLFPGH
B4: TUCAN fragment lacking the CARD (residues 1-337) (other)
chain: MMRQRQSHYCSVLFLSVNYLGGTFPGDICSEENQIVSSYASKVCFEIEEDYKNRQFLGPEGNVDVELIDKSTNRYSVWFPTAGWYLWSATGLGFLVRDEVTVTIAFGSWSQHLALDLQHHEQWLVGGPLFDVTAEPEEAVAEIHLPHFISLQGEVDVSWFLVAHFKNEGMVLEHPARVEPFYAVLESPSFSLMGILLRIASGTRLSIPITSNTLIYYHPHPEDIKFHLYLVPSDALLTKAIDDEEDRFHGVRLQTSPPMEPLNFGSSYIVSNSANLKVMPKELKLSYRSPGEIQHFSKFYAGQMKEPIQLEITEKRHGTLVWDTEVKPVDLQLVAAS
notes: also called ΔCARD; ΔCARD fragment of TUCAN

Assay [1] concerns the target B4. Description: co-immunoprecipitation, transfected cells, SDS-PAGE/immunoblot.
The target in assay [2] is T1, TUCAN (Tumor Up-regulated CARD-containing Antagonist of Caspase Nine), full-length (Homo sapiens (Human), UniProt Q9Y2G2 131-537).
T1 construct: Full-length TUCAN expressed by transient transfection in HEK293T cells; also called full-length TUCAN; CARD-X
T1 sequence: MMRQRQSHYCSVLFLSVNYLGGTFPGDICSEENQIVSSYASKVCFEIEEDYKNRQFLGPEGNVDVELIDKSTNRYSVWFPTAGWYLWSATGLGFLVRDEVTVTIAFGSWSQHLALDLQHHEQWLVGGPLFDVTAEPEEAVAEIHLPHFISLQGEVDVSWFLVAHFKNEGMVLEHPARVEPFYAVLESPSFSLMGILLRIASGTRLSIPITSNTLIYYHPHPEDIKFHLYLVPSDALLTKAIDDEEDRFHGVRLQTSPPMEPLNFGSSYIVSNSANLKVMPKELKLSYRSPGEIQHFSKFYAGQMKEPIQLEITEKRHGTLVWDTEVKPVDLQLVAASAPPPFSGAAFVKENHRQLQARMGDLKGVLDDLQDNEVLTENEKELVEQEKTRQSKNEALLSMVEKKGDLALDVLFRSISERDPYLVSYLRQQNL
Description: co-immunoprecipitation, transfected HEK293T cells, SDS-PAGE/immunoblot.

Assay [3] concerns the target T1, TUCAN (Tumor Up-regulated …). Nature of the assay: co-immunoprecipitation with HA- and Myc-tagged proteins.

Take B1: the binding result in assay [1] is reported as “no binding”. Consider B2, for which, in assay [2], the binding result is “no binding”. On the same count and under the same terms, as for B3, the entry is “no binding”.

For B4, the binding result in assay [3] was “no binding”.

The record behind these values is US20030165887A1 (BURNHAM INSTITUTE, published 2003).
